Laboratory results reported in patent US20170226560.

Molecular target: peptide substrate shown in FIG. 9a (Protease K substrate)

B1: Protease K (protein)
chain: AAQTNAPWGLARISSTSPGTSTYYYDESAGQGSCVYVIDTGIEASHPEFEGRAQMVKTYYYSSRDGNGHGTHCAGTVGSRTYGVAKKTQLFGVKVLDDNGSGQYSTIIAGMDFVASDKNNRNCPKGVVASLSLGGGYSSSVNSAAARLQSSGVMVAVAAGNNNADARNYSPASEPSVCTVGASDRYDRRSSFSNYGSVLDIFGPGTSILSTWIGGSTRSISGTSMATPHVAGLAAYLMTLGKTTAASACRYIADTANKGDLSNIPFGTVNLLAYNNYQA
- ratio of the absorption at 700 nm/520 nm (750 nM peptide, Protease K up to 300 pM, 60 min, 20 C): With increasing amounts of protease K the spectrum shifts back toward the native spectrum seen in the gold nanoparticles alone and the ratio falls to nearly 0
